The record followed here is patent publication EP4725970A1 (Fortvita Biologics Inc., dated 2026).

Where two headings read alike, the source gives them in different places.

The target in test [1] is T1, human CD3 (on Jurkat cells and human T cells) (human, UniProt P07766 23-207).
T1 construct: whole, on cells; the other chains of the complex on the cells are not described; also called CD3E
Briefly: flow cytometry, human CD4 T cells.

Test [2] has as its target T2, human GPRC5D (full-length, on cells) (human, UniProt Q9NZD1 1-345).
T2 construct: whole, on cells; Overexpressed on GS-CHO cells; also the GPRC5D of H929 and L363 myeloma cells in the killing assays; also called hGPRC5D; GS-CHO-hGPRC5D
Briefly: flow cytometry, GS-CHO-hGPRC5D cells. Background: In flow cytometry, cells or beads pass a laser one at a time.

Test [3] deals with T1, human CD3 (on Jurkat cells and human T …). The experiment in a line: flow cytometry, Jurkat cells.
Test [4] deals with T2, human GPRC5D (full-length, on cells). Briefly: flow cytometry, GS-CHO-hGPRC5D cells. This is another data set of the same source.
For test [5] the target is unchanged. Briefly: cell-based or functional assay.
The target is the same in test [6]. Briefly: cell-based or functional assay. The source holds these as a separate data set.
The target in test [7] is T1, human CD3 (on Jurkat cells and human T …). The experiment in a line: flow cytometry, human CD8 T cells.
Test [8] addresses T3, human BCMA (full-length, on cells) (human, UniProt Q02223 1-184).
T3 sequence: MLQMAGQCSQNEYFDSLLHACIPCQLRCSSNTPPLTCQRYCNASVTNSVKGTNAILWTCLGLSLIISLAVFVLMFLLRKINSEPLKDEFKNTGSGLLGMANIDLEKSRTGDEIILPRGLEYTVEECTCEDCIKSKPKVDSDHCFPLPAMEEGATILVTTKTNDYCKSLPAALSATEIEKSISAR
The experiment in a line: cell-based or functional assay.

In a further test the target is T4, cyno CD3E&G-His/Free (cynomolgus monkey, UniProt Q95LI5 22-117; Q95LI7 23-113).
T4 construct: Bought recombinant heterodimer; also called monkey CD3 E&G
T4 sequence (looked up) 1: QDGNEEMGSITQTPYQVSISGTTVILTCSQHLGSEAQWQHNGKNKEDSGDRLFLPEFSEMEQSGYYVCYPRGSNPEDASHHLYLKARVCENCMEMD
T4 sequence (looked up) 2: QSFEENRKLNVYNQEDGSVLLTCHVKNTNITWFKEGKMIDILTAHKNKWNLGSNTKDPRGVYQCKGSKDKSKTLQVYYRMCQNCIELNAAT
The experiment in a line: BLI (Octet), 1:1 fit. For orientation: Biolayer interferometry detects binding as a change in optical thickness at a sensor tip.

The target of a further test is T5, Cyno BCMA-His (cynomolgus monkey, UniProt A0A2K5UD97 1-53).
T5 construct: also called Cyno BCMA (ACRO BCA-C52H7); monkey BCMA
Briefly: BLI (Octet), 1:1 fit.

Another test has as its target T6, human CD3E&G-His/Free (human, UniProt P07766 23-126; P09693 23-116).
T6 construct: Bought recombinant heterodimer; 'His/Free' as printed (one chain His-tagged); also called human CD3 E&G heterodimer
Briefly: BLI (Octet), 1:1 fit.

The target of test [9] is T3, human BCMA (full-length, on cells). The experiment in a line: flow cytometry, GS-CHO-hBCMA cells.
Test [10] has the same target. Briefly: cell-based or functional assay. The source holds these as a separate data set.
Test [11] addresses T2, human GPRC5D (full-length, on cells). Briefly: cell-based or functional assay. This is another data set of the same source.

T5 sequence (A0A2K5UD97 entry or part of it): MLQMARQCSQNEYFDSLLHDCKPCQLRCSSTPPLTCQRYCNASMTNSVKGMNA
T1 sequence (P07766 23-207): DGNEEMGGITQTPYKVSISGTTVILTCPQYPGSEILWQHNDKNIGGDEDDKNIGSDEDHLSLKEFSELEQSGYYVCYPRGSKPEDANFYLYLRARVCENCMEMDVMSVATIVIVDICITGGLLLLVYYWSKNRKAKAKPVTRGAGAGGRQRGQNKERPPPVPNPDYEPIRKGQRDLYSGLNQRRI
T2 sequence (Q9NZD1 whole entry): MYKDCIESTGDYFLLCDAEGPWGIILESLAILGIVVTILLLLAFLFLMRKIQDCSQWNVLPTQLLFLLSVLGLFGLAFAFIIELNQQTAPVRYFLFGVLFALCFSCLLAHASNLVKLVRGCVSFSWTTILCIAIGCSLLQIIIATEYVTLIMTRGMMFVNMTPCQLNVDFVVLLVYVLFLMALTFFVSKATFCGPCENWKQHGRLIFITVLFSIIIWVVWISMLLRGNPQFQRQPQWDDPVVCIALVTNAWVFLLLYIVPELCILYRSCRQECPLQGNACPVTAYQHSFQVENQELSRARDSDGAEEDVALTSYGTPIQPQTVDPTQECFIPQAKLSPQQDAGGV
T6 sequence (P07766 23-126, chain 1 of 2): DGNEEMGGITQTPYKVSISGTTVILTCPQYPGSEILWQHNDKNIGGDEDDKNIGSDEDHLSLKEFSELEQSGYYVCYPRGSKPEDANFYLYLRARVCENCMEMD
T6 sequence (P09693 23-116, chain 2 of 2): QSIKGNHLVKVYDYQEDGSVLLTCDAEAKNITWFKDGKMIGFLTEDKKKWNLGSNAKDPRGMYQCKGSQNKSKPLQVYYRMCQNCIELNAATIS

B1: Roche-GPRC5D/CD3 (bispecific antibody)
light 1: DIVLTQSPALAVSPGQRATISCRASQSVSISGINLMNWYQQKPGQQPKLLIYHASILASGIPTRFSGSGSGTDFTLTIDPVQADDIATYYCQQTRESPLTFGSGTNLEIKRTVAAPSVFIFPPSDRKLKSGTASVVCLLNNFYPREAKVQWKVDNALQSGNSQESVTEQDSKDSTYSLSSTLTLSKADYEKHKVYACEVTHQGLSSPVTKSFNRGEC
light 2: EVQLLESGGGLVQPGGSLRLSCAASGFTFSTYAMNWVRQAPGKGLEWVSRIRSKYNNYATYYADSVKGRFTISRDDSKNTLYLQMNSLRAEDTAVYYCVRHGNFGNSYVSWFAYWGQGTLVTVSSASVAAPSVFIFPPSDEQLKSGTASVVCLLNNFYPREAKVQWKVDNALQSGNSQESVTEQDSKDSTYSLSSTLTLSKADYEKHKVYACEVTHQGLSSPVTKSFNRGEC
heavy 1: ELQLEQSGGGLVQPGGSLTLSCAASGFTFSKYAMAWVRQAPTKGLEWVASISTGGVNTYYRDSVKARFTISRDNAKNTQYLQMDSLRSEDTATYYCATHTGDYFDYWGQGVMVTVSSASTKGPSVFPLAPSSKSTSGGTAALGCLVEDYFPEPVTVSWNSGALTSGVHTFPAVLQSSGLYSLSSVVTVPSSSLGTQTYICNVNHKPSNTKVDEKVEPKSCDKTHTCPPCPAPEAAGGPSVFLFPPKPKDTLMISRTPEVTCVVVDVSHEDPEVKFNWYVDGVEVHNAKTKPREEQYNSTYRVVSVLTVLHQDWLNGKEYKCKVSNKALGAPIEKTISKAKGQPREPQVCTLPPSRDELTKNQVSLSCAVKGFYPSDIAVEWESNGQPENNYKTTPPVLDSDGSFFLVSKLTVDKSRWQQGNVFSCSVMHEALHNHYTQKSLSLSPGK
heavy 2: not shown
notes: GPRC5D/CD3 bispecific derived from WO 2019/154890 A1
With B1, the EC50 (as a rule, the concentration at which the effect is half-maximal) in test [1] is 66.6 nM; in [2], 16 nM; in test [3], 30.4 nM; in test [4] it was 9.78 nM; in test [7] it was 65.8 nM. The “EC50 of PBMC killing of H929 ko BCMA cells, donor1” value in test [5] is 0.00486 nM. For the same molecule, the “EC50 of PBMC killing of H929 ko BCMA cells (LDH)” value in test [6] amounted to 0.00419 nM.

B2: B3 (87) (hz5E12_sp34.87_497_triFab) (trispecific antibody, human IgG1, kappa, lambda, L234A L235A)
heavy 1: not shown
light 1: DIVMTQSPDSLAVSLGERATINCRASESVDSYGITFMNWYQQKPGQPPKLLIYAASNQGSGVPDRFSGSGSGTDFTLTISSLQAEDVAVYYCQQSKEVPWTFGQGTKLEIKRTVAAPSVFIFPPSDEQLKSGTASVVCLLNNFYPREAKVQWKVDNALQSGNSQESVTEQDSKDSTYSLSSTLTLSKADYEKHKVYACEVTHQGLSSPVTKSFNRGEC
heavy 2: not shown
light 2: DIQMTQSPSSLSASVGDRVTITCRASQSISRYLNWYQDKPGKAPKLLIYAASSLQSGVPSRFSGSGSGTDFTLTISSLQPEDFATYYCQQKYFDITFGGGTKVEIKRTVAAPSVFIFPPSDECLKSGTASVVCLLNNFYPREAKVQWKVDNALQSGNSQESVTEQDSKDSTYSLSSTLTLSKADYEKHKVYACEVTHQGLSSPVTKSFNRGES
light 3: QAVVTQEPSLTVSPGGTVTLTCRSSTGAVTTSNYANWVQKKPGQAPRGLIGGTNKRAPGVPARFSGSLLGDKAALTLLGAQPEDEAEYYCALWYSNLWVFGQGTKLTVLGQPKAAPSVTLFPPSSEELQANKATLVCLISDFYPGAVTVAWKADSSPVKAGVETTTPSKQSNNKYAASSYLSLTPEQWKSHRSYSCQVTHEGSTVEKTVAPTECS
notes: also called Exemplary antibody No. 2
With B2, the “EC50 of PBMC killing of H929 ko GPRC5D cells (LDH)” value in test [8] is 0.176 nM. Further, the Kd (commonly a measure of binding affinity in units of concentration) was determined as 61.1 nM in the test with cyno CD3E&G-His/Free, 1.58 nM with Cyno BCMA-His and 69.4 nM in the test with human CD3E&G-His/Free. Also, the koff – broadly, the rate constant with which the complex falls apart – with cyno CD3E&G-His/Free was 0.0131 s⁻¹; with Cyno BCMA-His it was 0.00122 s⁻¹; with human CD3E&G-His/Free, 0.0151 s⁻¹. For the same molecule, the values for the kon in the test with cyno CD3E&G-His/Free, in the test with Cyno BCMA-His and with human CD3E&G-His/Free were 214000 M⁻¹ s⁻¹, 773000 M⁻¹ s⁻¹ and 218000 M⁻¹ s⁻¹, respectively. Also, the EC50 in test [9] is 37.7 nM; in test [4], 132 nM. Besides, in [5], the “EC50 of PBMC killing of H929 ko BCMA cells, donor1” value is 0.0663 nM. Further, the “EC50 of PBMC killing of H929 ko GPRC5D cells, donor1” value in test [10] is 0.346 nM. The “EC50 of PBMC killing of H929 ko BCMA cells (LDH)” value in [11] stood at 0.025 nM.

B3: B5 (87) (hz5E12_sp34.87_497_triFab) (trispecific antibody, human IgG1, kappa, lambda, L234A L235A)
heavy 1: not shown
light 1: DIVMTQSPDSLAVSLGERATINCRASESVDSYGITFMNWYQQKPGQPPKLLIYAASNQGSGVPDRFSGSGSGTDFTLTISSLQAEDVAVYYCQQSKEVPWTFGQGTKLEIKRTVAAPSVFIFPPSDEQLKSGTASVVCLLNNFYPREAKVQWKVDNALQSGNSQESVTEQDSKDSTYSLSSTLTLSKADYEKHKVYACEVTHQGLSSPVTKSFNRGEC
heavy 2: not shown
light 2: QAVVTQEPSLTVSPGGTVTLTCRSSTGAVTTSNYANWVQKKPGQAPRGLIGGTNKRAPGVPARFSGSLLGDKAALTLLGAQPEDEAEYYCALWYSNLWVFGQGTKLTVLGQPKAAPSVTLFPPSSEELQANKATLVCLISDFYPGAVTVAWKADSSPVKAGVETTTPSKQSNNKYAASSYLSLTPEQWKSHRSYSCQVTHEGSTVEKTVAPTECS
light 3: DIQMTQSPSSLSASVGDRVTITCRASQSISRYLNWYQDKPGKAPKLLIYAASSLQSGVPSRFSGSGSGTDFTLTISSLQPEDFATYYCQQKYFDITFGGGTKVEIKRTVAAPSVFIFPPSDECLKSGTASVVCLLNNFYPREAKVQWKVDNALQSGNSQESVTEQDSKDSTYSLSSTLTLSKADYEKHKVYACEVTHQGLSSPVTKSFNRGES
notes: also called Exemplary antibody No. 3
Regarding B3, the “EC50 of PBMC killing of H929 ko GPRC5D cells (LDH)” value in test [8] came to 0.182 nM. Also, in test [9], the binding result was “no binding”. The “EC50 of PBMC killing of H929 ko BCMA cells (LDH)” value in test [11] is 0.0105 nM.

B4: B3b (87) (497(GLS)_sp34.87_5E12_triFab) (trispecific antibody, human IgG1, kappa, lambda, L234A L235A)
heavy 1: not shown
light 1: not shown
heavy 2: not shown
light 2: DIVMTQSPDSLAVSLGERATINCRASESVDSYGITFMNWYQDKPGQPPKLLIYAASNQGSGVPDRFSGSGSGTDFTLTISSLQAEDVAVYYCQQSKEVPWTFGQGTKLEIKRTVAAPSVFIFPPSDECLKSGTASVVCLLNNFYPREAKVQWKVDNALQSGNSQESVTEQDSKDSTYSLSSTLTLSKADYEKHKVYACEVTHQGLSSPVTKSFNRGES
light 3: QAVVTQEPSLTVSPGGTVTLTCRSSTGAVTTSNYANWVQKKPGQAPRGLIGGTNKRAPGVPARFSGSLLGDKAALTLLGAQPEDEAEYYCALWYSNLWVFGQGTKLTVLGQPKAAPSVTLFPPSSEELQANKATLVCLISDFYPGAVTVAWKADSSPVKAGVETTTPSKQSNNKYAASSYLSLTPEQWKSHRSYSCQVTHEGSTVEKTVAPTECS
notes: also called Exemplary antibody No. 4
B4 registered an EC50 in test [4] of 95.9 nM. In addition, in test [5], the “EC50 of PBMC killing of H929 ko BCMA cells, donor1” value is 0.879 nM. Besides, the “EC50 of PBMC killing of H929 ko GPRC5D cells, donor1” value in test [10] is 0.14 nM.
